Data from patent publication US20130053541A1, “METHODS FOR DISCOVERING MOLECULES THAT BIND TO PROTEINS” (LYNNTECH, INC., priority 2011, published 2013).

Each substance was assayed against T1, native human ESRRG protein (Homo sapiens, UniProt P62508) (assay: peptide microarray screening for ESRRG binding (Iteration 1 and 2)). Conditions: Iteration 1 primary screen.
T1 sequence (P62508 1-458): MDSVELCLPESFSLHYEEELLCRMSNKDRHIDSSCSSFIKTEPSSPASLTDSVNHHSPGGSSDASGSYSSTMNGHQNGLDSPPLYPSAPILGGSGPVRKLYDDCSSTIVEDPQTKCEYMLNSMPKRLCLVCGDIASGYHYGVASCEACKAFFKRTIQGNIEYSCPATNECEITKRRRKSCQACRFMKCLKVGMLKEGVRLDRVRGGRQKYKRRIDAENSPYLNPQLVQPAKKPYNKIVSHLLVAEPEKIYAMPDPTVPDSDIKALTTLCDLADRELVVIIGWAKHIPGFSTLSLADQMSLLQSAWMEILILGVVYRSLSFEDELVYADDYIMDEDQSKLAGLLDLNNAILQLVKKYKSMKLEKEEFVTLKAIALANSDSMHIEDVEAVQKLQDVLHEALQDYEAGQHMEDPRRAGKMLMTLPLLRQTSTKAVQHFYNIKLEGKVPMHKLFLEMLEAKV
Text: The BLOSUM62 matrix was divided into Tiers based, with Tier 1 comprising “most conserved” (lowest penalty) and Tier 3 comprising “least conserved” (highest penalty) mutations observed in nature. Sequences for microarray production for the primary stage (Iteration 1) of screening for protein binding were created by permuting AA positions 4 and/or 5 only (i.e., core of sequence) of parent 8-mer peptides using Tier 1 and Tier 3 substitutions. This allows the systematic variation of the sequence in order to identify the most important motif within the larger candidate ligand sequence that is needed for binding the target protein. All peptides on the array were grown from the C→N terminal, with the exposed N-terminal amino acid masked by an acetyl group to prevent folding of the sequence and enable full presentation of the peptide to its target protein.
Screening was carried out typically by hybridization of the protein (1 μg/mL) against the array for 1 h at 4° C.; detection of bound protein was carried out using a fluorescently labeled anti-ESRRG mAb. (Direct labeling of ESRRG and alternative detection strategies are equally valid).
Highest binders (based on relative fluorescence signal) were selected and iteratively sequence expanded and arrayed (Iteration 2); and ESRRG binding sequences were selected as above. For iterative arrays, the core positions (AA 4 and 5) were kept unchanged while the outer amino acids (2, 3, 6, and/or 7) were permuted using Tier 3 substitutions.
Daughter candidate ligands and their new Tier 3 and/or Tier 1 based combinations were synthesized in situ on an addressable peptide microarray and screened against native human ESRRG protein in order to determine sequences that bind to this protein. Bound protein was detected by a fluorescently labeled anti-ESRRG mAb. Results are obtained in fluorescence intensity units which were used to rank the peptide ligands. Excess (100×) competing biological matrices (human serum, HSA/BSA or bacterial protein extract) were used as backgrounds to select for specific ligands to the protein. Other competing proteins can be added to background for specificity selection and directed evolution of ligands.
Iterative sequence expansion and arraying of 10 highest binding ligands to ESRRG from Iteration 1 was carried out and the new peptide sequences were synthesized on an array and screened against the protein, as described above. In this step, the central 2 amino acids (core) in peptide sequences were maintained unchanged while outlying amino acids (2, 3, 6, and 7) were permuted (using Tier 1 and Tier 3 substitutions) in a ‘cipher’ or ‘combination’ lock approach. Further affinity maturation of sequence was observed, with multifold enhancement in binding signal of Iteration 2 sequences (i.e., Granddaughters) compared to their respective parents from Iteration 1 (i.e., Daughters) on the same array.

log2 (Sample B/Sample A)	Substance
9.45	Ac-IKQDHNNS-NH2 (C-terminus assumed)
9.63	Ac-IKQNHNNS-NH2 (C-terminus assumed)
5.37	Ac-AANMFLLL-NH2 (C-terminus assumed)

Further lines, the substance ahead of its results:

Substance	log2 (Sample B/Sample A)
Ac-AIRGALMG-NH2 (C-terminus assumed)	5.48
Ac-NSLRKHLL-NH2 (C-terminus assumed)	5.36

Same assay, conditions: Iteration 1 primary screen; fluorescence intensity units

Sample A (Bkgd) Signal	Sample B (Probe) Signal	Substance
47.85	3,242.55	NSLRQHLL
1.00	701.08	Ac-IKQDHNNS-NH2 (C-terminus assumed)
1.00	793.75	Ac-IKQNHNNS-NH2 (C-terminus assumed)
22.22	3,763.81	AANYLLLL
9.00		NIKVHANN
41.92	1,606.54	ANNLWLLH
2.12		ANNIQLLH
20.67	1,673.50	NSLRSHLL
42.26	1,752.81	Ac-AANMFLLL-NH2 (C-terminus assumed)
11.78		AIRVHLMG
6.97		LHLKGSQT
47.08	1,537.71	ANNLQLLH

Continued, substance first:

Substance	Sample A (Bkgd) Signal	Sample B (Probe) Signal
Ac-AIRGALMG-NH2 (C-terminus assumed)	19.03	851.06
ANNIWLLH	30.52	1,012.72
ANNILLLH	13.51	1,093.06
Ac-NSLRKHLL-NH2 (C-terminus assumed)	20.79	856.14
ANNVKLLH	52.38	1,718.47
ANNSWLLH	20.06	1,259.63
RKALVGKY	28.08	
IKQNYNNS	23.70	
ANNLSLLH	21.54	1,220.01
AANNYLLL	31.22	3,436.10
AANYVLLL	14.74	2,199.01
RKAIFGKY	23.63	
AANMLLLL	25.96	1,191.86
AANYILLL	13.78	2,012.02
ANNSQLLH	1.00	
ANNFLLLH	46.43	1,624.73

Same assay, conditions: Iteration 2 iterative screen

Substance	log2 (Sample B/Sample A)
Ac-LYLLKHHP-NH2 (C-terminus assumed)	3.05

Same assay, conditions: Iteration 2 iterative screen; fluorescence intensity units

Substance	Sample A (Bkgd) Signal	Sample B (Probe) Signal
NNSYPRHR	731.12	3,422.79
DINFSLGI	160.50	4,797.29
EDSYPRDG	297.83	5,021.94
PDSYPRWG	288.88	5,591.60
Ac-LYLLKHHP-NH2 (C-terminus assumed)	304.92	2,527.00
